Measurements taken from US20250082727A1, “CXCL14-BASED COMPOSITIONS AND METHOD FOR ENHANCING CARTILAGE REGENERATION” (FAR EASTERN MEMORIAL HOSPITAL, priority 2023, published 2025).

B1: CXCL14: small cytokine of the CXC chemokine family, Homo sapiens CXCL14, amino acid sequence SEQ ID NO: 1 (protein, listed as Homo sapiens)
chain: MSLLPRRAPPVSMRLLAAALLLLLLALYTARVDGSKCKCSRKGPKIRYSDVKKLEMKPKYPHCEEKMVIITTKSVSRYRGQEHCLHPKLQSTKRFIKWYNAWNEKRRVYEE

Columns and labels:
ADSC pellets = assay: Alcian blue staining of ADSC pellets; format: cell-based
Description: (§1) To obtain a 3D pellet culture, 1×10^5 MSCs were centrifuged at 1200 rpm for 3 min in polypropylene tubes and cultured for 1 day. To induce chondrogenesis, the pelleted cells were cultured in DMEM-HG (Gibco, cat. no. 121000) containing 1% ITS-Premix (Corning, cat. no. 354352), 1% penicillin streptomycin (Gibco, cat. no. 15240), 1 mM sodium pyruvate (Gibco, cat. no. 11360070), 0.35 mM proline (Sigma-Aldrich, cat. no. P5607), 10 ng/mL TGF-β1 (SinoBio, cat. no. 10804-HNAC), 0.17 mM ascorbic acid 2-phosphate (Sigma-Aldrich, cat. no. A8960), and 100 nM dexamethasone (Sigma-Aldrich, cat. no. D4902). After induction, the chondrogenic differentiation results were evaluated on days 1, 7, 14, and 21.
(§2) To further verify the presence of chondrogenic proteins in response to CXCL14-P treatment, ADSCs were analyzed during chondrogenesis using biomarkers such as SOX9, Collagen type II, COMP, and CXCR4. On the third day of differentiation, flow cytometry was used to assess these specific chondrogenic markers. […] ADSCs were monitored until day 7, with cellular uptake of FAM-CXCL14-P observed using fluorescence microscopy, the results were shown in FIG. 7E.

3D ADSC spheroids = assay: Immunofluorescence staining of chondrogenic proteins in 3D ADSC spheroids; format: cell-based; details: 3D culture
Description: MSC spheroids were fixed with 4% paraformaldehyde (PFA) (PH 7.2) in PBS for 30 minutes at room temperature. The samples were then washed with PBS to remove the PFA. Next, the spheroids were carefully transferred into ice-cold methanol and incubated at −40° C. for 25 minutes. Following fixation, the spheroids were treated with 1 mg/mL sodium borohydride to clean them, and then washed with PBS. After washing, the spheroids were incubated in a blocking solution containing 10% normal rabbit serum and 1x PBS with 0.1% sodium azide for 6 hours or overnight. The samples were then incubated with primary antibodies against Collagen type II (ab34712, Abcam), SOX9 (ab185966, Abcam), COMP (sc-374660, Santa Cruz), and Aggrecan (MA3-16888, Invitrogen) for 24 hours at 4° C. Subsequently, the samples were incubated with Alexa Fluor 488-, Alexa Fluor 555-, or Alexa Fluor 647-conjugated secondary antibodies for 1 hour at room temperature. Fluorescence images were acquired using a Leica SP8 STED confocal microscope.

ADSC = assay: Real-time PCR of chondrogenic genes in treated ADSCs; format: cell-based, human
Description: as §1
To identify functional peptide sequences within the CXCL14 protein that enhance chondrogenesis, an CXCL14 peptide (CXCL14-P), which has the amino acid sequence set forth in SEQ ID NO: 2, was used for interacting with CXCR4. […]
MSC-EVs have been reported to have potential for tissue repair; however, naive EVs lack the enhanced capacity to stimulate chondrogenesis and cartilage repair. […] On day 7, ADSCs treated with CXCL14-P-MSC-EVs were analyzed for the expression of SOX9, COL2A1, ACAN, COMP, SOSTDC1, and ITGB1 genes […] using real-time PCR.

human ADSCs = assay: Flow cytometry of chondrogenic markers in ADSCs; format: cell-based; details: third day of differentiation
Description: as §2

[1] = test system: CXCL14, SOX9, COL2A1, and ACAN mRNA expressions; assay: Real-time PCR of chondrogenic genes under TGF-b stimulation during chondrogenesis; format: cell-based; details: under a low dose of TGF-β stimulation
Description: as §1
To better understand the molecular mechanism relating to the control of chondrogenesis modulated by CXCL14, the chondrogenic gene expressions were investigated during chondrogenesis.

[2] = test system: IPFP-MSC from OA patients; assay: Alcian blue staining of GAG during chondrogenesis of IPFP-MSC pellets; format: cell-based, human; details: day 3
Description: The IPFP tissue was washed repeatedly with Dulbecco's phosphate-buffered saline (Gibco, cat. no. 21600) containing 5% penicillin-streptomycin and amphotericin B solution (Gibco, cat. no. 15240). The tissue was minced and subjected to enzymatic digestion with 0.1% type I collagenase (Gibco, cat. no. 17100017) diluted in minimum essential medium α (α-MEM, Gibco, cat. no. 120000) and 1% bovine serum albumin (Sigma, cat. no. A7906) for 18 h at 37° C. After digestion, an equal amount of culture medium containing 10% fetal bovine serum was added to stop collagenase activity. The cell solution was sieved through a 100-μm mesh and centrifuged at 500 g for 5 min. The cell pellets were resuspended in culture medium (supplemented with 10% FBS, 1% penicillin-streptomycin, and amphotericin B) and seeded in a 10-cm culture dish. The medium was changed every 72 h until the cells reached 80%-90% confluence.
To obtain a 3D pellet culture, 1×10^5 MSCs were centrifuged at 1200 rpm for 3 min in polypropylene tubes and cultured for 1 day. […]
CXCL14 was analyzed to determine the stimulation of chondrogenesis and cartilage regeneration. CXCL14 was also analyzed to determine whether CXCL14 can induce chondrogenesis by using IPFP-MSC from OA patients treated with the recombinant protein CXCL14 and investigating the glycosaminoglycan (GAG) content by Alcian blue staining. […]

ACLT-induced OA = assay: ACLT-induced knee OA mouse model (Safranin O, collagen II IHC, OARSI score); format: in vivo, C57BL/6 mice; details: for OARSI score: ACLT mice, ACLT group 5.5, sham 0.17
Description: Surgical ACLT is the most commonly used for generating an animal model of OA. In this study, 8-week-old specific-pathogen-free C57BL/6 mice were subjected to ACLT and medial collateral ligament (MCL) transection for establishing an OA mouse model (n=6). First, the knee joints of the hind limbs were incised along the medial edge of the patellar ligament. After the joint capsule was exposed, the ACL and MCL were transected. […] After deparaffinization, the sections were stained with hematoxylin for 3 min and differentiated in 1% acid alcohol for 15 s, followed by staining in 0.02% aqueous fast green for 3 min and counterstaining with 0.1% Safranin O for 3 min. Finally, the sections were dehydrated in serial dilutions of ethanol, cleared in xylene, mounted onto glass slides by using neutral gum. Each stained area was observed under a light microscope and photographed using a photomicroscope equipped with a CCD video camera.

SOSTDC1 = assay: qPCR validation of SOSTDC1 after CXCL14 treatment during MSC chondrogenesis; format: cell-based, human

Row | Molecule | GAG content (Alcian blue staining) (ADSC pellets; ADSC pellets during chondrogenesis) | GAG deposition (Alcian blue staining) (ADSC pellets; ADSC pellets with varying ratios, day 7) | expressions of SOX9, Collagen type II, and Aggrecan (immunofluorescence) (3D ADSC spheroids) | CXCL14, SOX9, and COL2A1 gene expression (ADSC; ADSC, real-time PCR on day 7, compared to CXCL14 protein) | SOX9, COL2A1, COMP, and ACAN gene expression (ADSC; one-day treatment then fresh medium, real-time PCR on day 7) | chondrogenic potential (SOX9, Collagen type II, COMP, CXCR4 markers) (human ADSCs) | CXCL14, SOX9, COL2A1, and ACAN gene expression [1] | GAG deposition (Alcian blue staining) [2] | OARSI score (ACLT-induced OA; CXCL14 10 ng) | OARSI score (ACLT-induced OA; CXCL14 20 ng) | cartilage repair, staining GAG content and type II collagen (ACLT-induced OA; ACLT-induced OA model) | SOSTDC1 expression (qPCR) (SOSTDC1; IPFP-MSCs from OA donors) | SOSTDC1 expression (qPCR) (SOSTDC1; human ADSCs from non-OA donors)
1 | CXCL14-P: CXCL14 peptide with the amino acid sequence SEQ ID NO: 2, produced through solid-phase peptide synthesis (ITTKSVSRYRGQEH; listed as Homo sapiens) | higher GAG content | increased GAG deposition | consistent results | stronger chondrogenic gene expression compared to the protein | significantly induced | enhances the chondrogenic potential |  |  |  |  |  |  | 
2 | B1 |  |  | elevate |  |  |  | induce | increased | 2.7 | 1 | dose-dependent stimulated cartilage repair | upregulated expression | upregulated expression
